{
  "source": "patent US20210155689A1",
  "about": "(SHANGHAI PHARMAEXPLORER, published 2021)",
  "molecules": {"B1": {"name": "405B8H3 mouse-human chimeric antibody (antibody, V domains shown)", "VH": "QVQLQQSGAELVRPGASVTLSCKASGYTFTDYEMHWVKQTPVHGLEWIGATDPETGNSAYNQKFKGKAIMTADKSSSTAYMELRSLTSEDSAVYYCISTGWNDWGQGTSLTVSS", "VL": "DIKMTQSPSSMYASLGERVTITCKASQDINSYLSWFQQKPGKSPKTLIYRADRLLDGVPSRFSGSGSGQDYSLTISSLEYGDMGIYYCLQYDEFPYTFGGGTKLEIK", "notes": "also called mAb103-405B8H3"}, "B2": {"name": "556F6B8 mouse-human chimeric antibody (antibody, V domains shown)", "VH": "RVQLKQSGPGLVQPSQSLSITCTVSGFSLIKYGVHWVRQSPGEGLEWLGVIWRGGITDYNAAFMSRLSITKDNSKSQVFFKMNSLQADDTAIYYCAKWDGPLAMDYWGQGTSVTVSS", "VL": "DIVMTQSHKFLSTSVGDRVSITCKASQDVGTTVAWYQQKPGQSPKLLIYWASTRHTGVPDRFTGSGSGTDFTLTISNVQSEDLADYFCQQYSSYPYTFGGGTKLEIK", "notes": "also called mAb123-556F6B8; 556F8B8"}},
  "key": {"[1]": {"molecular_target": "LAG-3-hFc protein (human LAG-3 extracellular region with hFc tag) (human) (UniProt P18627)", "assay": "ELISA, inhibition of LSECtin-His binding to coated LAG-3-hFc, antibody 8.000 nM, replicate 1"}, "[2]": {"molecular_target": "human LAG-3 on cells (HEK293-hLAG-3 stable cell line) (human) (UniProt P18627)", "assay": "FACS, HEK293-hLAG-3, antibody 0.32 nM"}, "[3]": {"molecular_target": "monkey LAG-3 on cells (HEK293-cLAG-3 stable cell line) (monkey)", "sequence (P18627 other isoform, or with tags, fused parts or gaps limits assumed)": "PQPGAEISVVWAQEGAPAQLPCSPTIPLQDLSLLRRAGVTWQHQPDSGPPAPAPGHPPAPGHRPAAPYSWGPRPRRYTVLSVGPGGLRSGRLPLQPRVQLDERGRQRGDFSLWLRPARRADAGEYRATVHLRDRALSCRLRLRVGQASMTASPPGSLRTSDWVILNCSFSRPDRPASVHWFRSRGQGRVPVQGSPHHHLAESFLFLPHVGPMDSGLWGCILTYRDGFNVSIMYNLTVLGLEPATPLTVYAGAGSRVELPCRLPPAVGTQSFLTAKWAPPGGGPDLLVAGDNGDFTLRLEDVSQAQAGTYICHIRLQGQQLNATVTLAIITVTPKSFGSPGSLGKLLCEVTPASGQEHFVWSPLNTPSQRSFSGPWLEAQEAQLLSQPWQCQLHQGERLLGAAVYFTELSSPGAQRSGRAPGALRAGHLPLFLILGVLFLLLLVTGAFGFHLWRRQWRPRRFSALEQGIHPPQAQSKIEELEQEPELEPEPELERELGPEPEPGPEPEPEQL", "assay": "FACS, HEK293-cLAG-3, antibody 40.000 nM"}, "[4]": {"molecular_target": "human LAG-3 on cells (HEK293-hLAG-3 stable cell line) (human) (UniProt P18627)", "assay": "FACS, HEK293-hLAG-3, antibody 200.000 nM"}, "[5]": {"molecular_target": "human LAG-3 on cells (HEK293-hLAG-3 stable cell line) (human) (UniProt P18627)", "assay": "FACS, HEK293-hLAG-3, antibody 0.000 nM"}, "[6]": {"molecular_target": "monkey LAG-3 on cells (HEK293-cLAG-3 stable cell line) (monkey)", "assay": "FACS, HEK293-cLAG-3, antibody 0.000 nM"}, "[7]": {"molecular_target": "LAG-3-hFc protein (human LAG-3 extracellular region with hFc tag) (human) (UniProt P18627)", "assay": "ELISA, inhibition of LSECtin-His binding to coated LAG-3-hFc, antibody 40.000 nM, replicate 1"}, "[8]": {"molecular_target": "LAG-3-hFc protein (human LAG-3 extracellular region with hFc tag) (human) (UniProt P18627)", "assay": "ELISA, inhibition of LSECtin-His binding to coated LAG-3-hFc, antibody 1.600 nM, replicate 1"}, "[9]": {"molecular_target": "monkey LAG-3 on cells (HEK293-cLAG-3 stable cell line) (monkey)", "assay": "FACS, HEK293-cLAG-3, antibody 8.000 nM"}, "[10]": {"molecular_target": "LAG-3-hFc protein (human LAG-3 extracellular region with hFc tag) (human) (UniProt P18627)", "assay": "ELISA, inhibition of LSECtin-His binding to coated LAG-3-hFc, antibody 0.013 nM, replicate 1"}, "[11]": {"molecular_target": "T1, human LAG-3 on cells (HEK293-hLAG-3 stable cell line) (human, UniProt P18627 23-525)", "T1 sequence": "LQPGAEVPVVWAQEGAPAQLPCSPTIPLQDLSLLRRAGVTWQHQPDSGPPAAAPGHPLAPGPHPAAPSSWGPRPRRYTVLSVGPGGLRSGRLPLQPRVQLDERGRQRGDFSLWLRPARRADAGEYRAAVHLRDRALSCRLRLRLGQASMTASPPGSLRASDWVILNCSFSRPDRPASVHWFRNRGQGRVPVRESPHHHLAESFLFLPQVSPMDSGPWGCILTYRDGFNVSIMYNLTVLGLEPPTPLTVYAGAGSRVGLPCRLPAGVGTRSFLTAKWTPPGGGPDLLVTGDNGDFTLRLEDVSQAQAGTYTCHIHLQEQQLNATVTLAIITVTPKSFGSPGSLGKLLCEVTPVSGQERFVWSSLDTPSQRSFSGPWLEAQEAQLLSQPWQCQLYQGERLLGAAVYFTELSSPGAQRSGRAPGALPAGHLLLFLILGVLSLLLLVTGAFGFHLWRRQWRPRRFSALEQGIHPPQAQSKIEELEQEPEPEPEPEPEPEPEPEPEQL", "assay": "FACS, HEK293-hLAG-3, antibody 8 nM", "excerpt": "A. The binding of antibodies to LAG-3 expressing cells was detected by Flow cytometry (FACS), wherein the method was according to that of Example 5."}, "[12]": {"molecular_target": "T1, human LAG-3 on cells (HEK293-hLAG-3 …)", "assay": "FACS, HEK293-hLAG-3, antibody 0 nM"}, "[13]": {"molecular_target": "T1, human LAG-3 on cells (HEK293-hLAG-3 …)", "assay": "FACS, HEK293-hLAG-3, antibody 8 nM", "remark": "listed apart in the source"}, "[14]": {"molecular_target": "T1, human LAG-3 on cells (HEK293-hLAG-3 …)", "assay": "FACS, HEK293-hLAG-3, antibody 0.064 nM"}},
  "data": [
    {"molecule": "hIgG control (antibody)", "values": [
      {"measurement": "Inhibition rate (%)", "setting": "[1]", "value": -4.3, "unit": "%"},
      {"measurement": "Mean fluorescence intensity", "setting": "[2]", "value": 4},
      {"measurement": "Mean fluorescence intensity", "setting": "[3]", "value": 2.88},
      {"measurement": "Mean fluorescence intensity", "setting": "[4]", "value": 3.1},
      {"measurement": "Mean fluorescence intensity", "setting": "[5]", "value": 3},
      {"measurement": "Mean fluorescence intensity", "setting": "[6]", "value": 2.86},
      {"measurement": "Inhibition rate (%)", "setting": "[7]", "value": 0.7, "unit": "%"},
      {"measurement": "Inhibition rate (%)", "setting": "[8]", "value": -21.6, "unit": "%"},
      {"measurement": "Mean fluorescence intensity", "setting": "[9]", "value": 3.16},
      {"measurement": "Inhibition rate (%)", "setting": "[10]", "value": -12.9, "unit": "%"}
    ]},
    {"molecule": "B1", "values": [
      {"measurement": "Mean fluorescence intensity", "setting": "[11]", "value": 226}
    ]},
    {"molecule": "B2", "values": [
      {"measurement": "Mean fluorescence intensity", "setting": "[12]", "value": 4},
      {"measurement": "Mean fluorescence intensity", "setting": "[13]", "value": 90},
      {"measurement": "Mean fluorescence intensity", "setting": "[14]", "value": 12}
    ]}
  ]
}
